Test results taken from patent US10806798B2, “Compound with effects of thrombolysis, free radical scavenging and thrombus-targeting” (Shanghai Lumosa Therapeutics Co., Ltd., priority 2012, dated 2020).
Bridge positions count the residues as written; N and C are the ends. Peptide text beside a SMILES is read from it. I, II: the chains in the order shown. * marks the point of attachment. X1 = CC1(C)N([O])C(c2ccc(OCC(=O)*)cc2)=[N+]([O-])C1(C)C

Key:
rats with stroke [1] = assay: Treatment 6 h after the onset of stroke induced by aged thrombus, Ie 2 μmol/kg (Zealonga scores); format: in vivo, SD rats; settings: 2 μmol/kg Ie per day for 6 days from 6 h after onset
Description: (§1) The efficacy was represented by neural function scores, and a lower score indicates a higher efficacy. A 10% chloral hydrate solution was injected intraperitoneally into male SD rats at a dosage of 400 mg/kg body weight for anesthesia. A longitudinal open incision was made at the center of the neck, and the right common carotid artery trunk was dissected (about 3 cm in length). Carotid external artery branches were each dissected and ligated at the hyoid level, and the carotid internal artery was dissected at the swollen part of the neck. The open incisions in the carotid internal artery and the proximal end of the common carotid artery were occluded respectively with noninvasive arterial clips, and the distal end of the carotid external artery was ligated. A catheter containing 0.5 mL thrombus suspension in normal saline was inserted in the carotid external artery trunk. At the same time when the clip on the carotid internal artery was released, the 0.5 mL thrombus suspension in normal saline in the catheter slowly flew from the carotid external artery to its proximal end, and then was injected into the arteries in brain through the carotid internal artery. […] The rats were compared to themselves each day, and evaluated for the degree of damage in neural function by the Zealonga method. […]

rats with stroke [2] = assay: Treatment 24 h after the onset of stroke, Ie 5 μmol/kg initially then 2 μmol/kg (Zealonga scores); format: in vivo, SD rats; settings: Ie 5 μmol/kg on day 1 (24 h after onset), 2 μmol/kg per day for 5 days
Description: as §1

rats with stroke [3] = assay: Treatment 6 h after the onset of stroke, Ie 5 μmol/kg initially then 2 μmol/kg (Zealonga scores); format: in vivo, SD rats; settings: Ie 5 μmol/kg on day 1 (6 h after onset), 2 μmol/kg per day for 5 days
Description: as §1, with “indicates” for “indicates a”, “incision” for “incisions”

[4] = FT-MS monitoring of metabolic products in brain tissues of rats treated with Ie; format: in vivo
Description: The entire rat brain was taken out and placed into a 50 mL centrifuge tube, into which 10 mL 0.9% NaCl was added, and homogenized to obtain a uniform suspension which was then centrifuged at 3000 rpm for 10 min. 5 mL supernatant was added into 10 mL methanol and evenly mixed by shaking, and centrifuged at 3000 rpm for 10 min. The supernatant was concentrated under reduced pressure until dry, followed by addition of 1 mL methanol, and again centrifuged at 12000 rpm for 10 min. The resultant supernatant was used for monitoring of the content of metabolic products in brain tissues in rats treated with compound Ie.
(MS conditions: loading: 10 μL; ionization mode: ES+; cone voltage: 30 V; mobile phase flow rate: 0.2 mL/min). According to the above data, the metabolic products M1 and M2 were assumed as the following compounds: […]

CC(C)[C@H](NC(=O)[C@H](CC(=O)O)NC(=O)CNC(=O)[C@H](CCCNC(=N)N)NC(=O)[C@H](CCCCNC(=O)[C@H](CCCCN)NC(=O)[C@H](C)NC(=O)[C@@H]1CCCN1C(=O)[C@H](CCCNC(=N)N)NC(=O)CN)NC(=O)COc1ccc(C2=[N+]([O-])C(C)(C)C(C)(C)N2[O])cc1)C(=O)O [Ie, 1,3-dioxo-2-{4′-oxyacetyl-[N^ω-(Gly-Arg-Pro-Ala-Lys)-Lys-Arg-Gly-Asp-Val]phenyl}-4,4,5,5-tetramethylimidazoline] (I: H-GRPAK / II: X1-KRGDV-OH; amide I:C-II:1)
rats dead among the 12 rats that received the treatment (rats with stroke [1]): six were dead
rats dead among the 12 rats that received the treatment (rats with stroke [2]): three were dead
rats dead among the 12 rats that received the treatment (rats with stroke [3]): two were dead
crossing of the blood-brain barrier ([4]; concluded from metabolic products found in rat brain): did indeed cross the blood-brain barrier
metabolic products in brain tissues ([4]; rats treated with compound Ie, high-resolution FT-MS): two metabolic products M1 and M2 in the brain
